# Values quoted from earlier work in US10822386B2, “Insulin analogues with enhanced stability and reduced mitogenicity” (CASE WESTERN RESERVE UNIVERSITY, priority 2014, dated 2020).
# Experiments:
# insulin receptor = insulin receptor (Homo sapiens, UniProt P06213); conditions: versus wild-type insulin
# Sprague-Dawley rats = conditions: chronic treatment, relative to wild-type insulin
# [1] = substitution of His^B10 by Asp, versus wild-type
# [2] = tested on: neoplastic cell lines (including a cell line derived from a human breast cancer)
substance,measurement,setting,value
Asp^B10-insulin,potency to stimulate lipogenesis,isolated adipocytes,augments in parallel its potency
same,affinity for the insulin receptor,insulin receptor,enhances the affinity
same,incidence of mammary tumors,Sprague-Dawley rats,excess incidence of mammary tumors
same,thermodynamic stability of the zinc-free insulin monomer,[1],augment the thermodynamic stability
same,mitogenicity in cell culture,[2],increased mitogenicity
